Assay results reported in paper PMC6648666.

T1: HqRRM2 (hnRNP H qRRM2) (human, UniProt P31943 94-194)
T1 sequence: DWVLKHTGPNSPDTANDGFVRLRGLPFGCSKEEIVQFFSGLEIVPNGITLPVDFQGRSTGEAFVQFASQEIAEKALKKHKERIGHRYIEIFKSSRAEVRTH

T2: HqRRM1,2 (hnRNP H tandem qRRMs) (human, UniProt P31943 10-194)
T2 sequence: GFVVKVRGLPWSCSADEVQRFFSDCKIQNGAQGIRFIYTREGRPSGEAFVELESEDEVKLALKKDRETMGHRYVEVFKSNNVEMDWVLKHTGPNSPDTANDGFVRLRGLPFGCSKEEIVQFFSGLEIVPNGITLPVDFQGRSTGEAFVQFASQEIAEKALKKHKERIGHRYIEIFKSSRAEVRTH

T3: HqRRM1 (hnRNP H qRRM1) (human, UniProt P31943 10-111)
T3 sequence: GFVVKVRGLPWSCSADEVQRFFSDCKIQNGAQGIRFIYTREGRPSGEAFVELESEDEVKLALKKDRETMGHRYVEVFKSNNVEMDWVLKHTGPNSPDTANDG

T4: HqRRM1,2 BTFA-labeled (human, UniProt P31943 10-194)
T4 sequence: T2 sequence

B1: AGGGU (ssRNA)
RNA: AGGGU
B2: AGGGA*U spin-labeled (ssRNA)
RNA: AGGGAU
modifications: phosphorothioate between A5 and U6

What was measured:
HqRRM2 (hnRNP H qRRM2) = target: T1, HqRRM2 (hnRNP H qRRM2); assay: ITC
[1] = target: T2, HqRRM1,2 (hnRNP H tandem qRRMs); assay: ITC
HqRRM1 (hnRNP H qRRM1) = target: T3, HqRRM1 (hnRNP H qRRM1); assay: ITC
HqRRM1,2 BTFA-labeled = target: T4, HqRRM1,2 BTFA-labeled; assay: 19F NMR PRE

| Binder | Kd (HqRRM2 (hnRNP H qRRM2)) [nM] | Kd [1] [nM] | Kd (HqRRM1 (hnRNP H qRRM1)) [µM] | binding result (HqRRM1,2 BTFA-labeled) |
| --- | --- | --- | --- | --- |
| B1 | 2200 ± 800 | 800 ± 100 | 3.2 ± 0.1 | – |
| B2 | – | – | – | binds |
